From US20190284603A1 come the findings set out here.

The target of assay [1] is Mono-nucleosomes from mouse embryonic stem cells (ESCs) (mouse) (UniProt P68433). Briefly: single-molecule TIRF time-lapse imaging, images every 15 minutes.
The target of assay [2] is Recombinant unmodified nucleosomes. Nature of the assay: single-molecule TIRF time-lapse imaging, summed binding events.

In the case of “Tri-Methyl-Histone H3 (Lys4) (C42D8) Rabbit mAb (Alexa Fluor 555 Conjugate) #11960 (antibody)”, the time to equilibrium of binding and dissociation in assay [1] worked out at 75 min.

On to “Tri-Methyl-Histone H3 (Lys27) (C36B11) Rabbit mAb (Alexa Fluor 647 Conjugate) #12158 (antibody)”, for which the time to equilibrium of binding and dissociation in assay [1] was determined as 45 min.

In the case of “Acetyl-Histone H3 (Lys9) (C5B11) Rabbit mAb (Alexa Fluor 647 Conjugate) #4484 (antibody)”, the percent of nucleosomes scored (bound by antibody) in assay [2] was found to be 0.1%.
